According to patent US20260055190A1, “ANTIBODIES FOR PLATELET FCyRIIA AND RELATED METHODS OF USE” (UNIVERSITY OF VERMONT AND STATE AGRICULTURAL COLLEGE, priority 2022, published 2026):
Entries after “also recorded” stand apart in the source; their conditions may differ.

Experiments:
FcγRIIa = assay: Phosphorylation of FcγRIIa during platelet activation (immunoprecipitation, Western blot with anti-phosphotyrosine 4G10); type: cell-based, human
Description: FIGS. 1A-1E are western blots and graphs showing that platelet activation results in FcγRIIa being phosphorylated: Platelets (2×10^8 in 0.5 ml) from low-risk subjects isolated with the use of gel filtration were exposed to no agonist (FIG. 1E) or to thrombin (50 nM) (FIG. 1A), convulxin (10 ng/ml) (FIG. 1B), ADP (25 μM) (FIG. 1C), and PAF (100 nM) (FIG. 1D) for selected intervals before preparation of platelet lysates. FcγRIIa was separated by immunoprecipitation and Western blots were probed with an antiphosphotyrosine antibody (4G10), stripped, and re-probed with anti-FcγRIIa to confirm equal loading (data not shown). Fluorescence intensity of bands was quantified with the use of a Li-Cor system. Results (n=3-5 for each condition) are peak intensity that is not altered by adjusting the contrast of the image or the size of the area of interest, and were compared with those obtained when no agonist was used (Student's t test, *p<0.05, **p<0.01). […]
Immunoprecipitation was performed overnight at 4° C. with the use of goat anti-CD32A/C (Santa Cruz Biotechnology, Santa Cruz, Calif.) or a mouse anti-phosphotyrosine conjugated with magnetic beads (4G10, Millipore, Billerica, Mass.). […] Bands were detected with the use of use of a Li-Cor Odyssey Infrared Imaging system (Li-Cor Biosciences, Lincoln, Nebr.) or chemiluminescence (Amersham/General Electric Healthcare, Piscataway, N.J.).

[1] = target: FcγRIIa on non-fixed human platelets (also as present in platelet lysates) (human) (UniProt P12318); assay: cell-based or functional assay
Megakaryocyte cell line = assay: IFNγ effect on FcγRIIa expression by megakaryocyte cell line; type: cell-based; conditions: IFNγ treatment, FIG. 10
Excerpt: The graphs on the lower aspect of the figure show evidence of differentiation of the stem cells into megakaryocytes.

[2] = test system: human stem cell derived Megakaryocytes; assay: IFNγ effect on FcγRIIa expression by human stem cell derived megakaryocytes; type: cell-based; conditions: IFNγ treatment, FIG. 11
Excerpt: The graphs on the lower aspect of the figure show evidence of differentiation of the cells into megakaryocytes.

[3] = target: T1, FcγRIIa on non-fixed human platelets (also as present in platelet lysates) (human, UniProt P12318 34-317); assay: immunoprecipitation with platelet lysates
T1 construct: Endogenous receptor of platelets from human subjects; In immunoprecipitation experiments the receptor came from platelet lysates; also called platelet FcγRIIa; CD32
T1 sequence: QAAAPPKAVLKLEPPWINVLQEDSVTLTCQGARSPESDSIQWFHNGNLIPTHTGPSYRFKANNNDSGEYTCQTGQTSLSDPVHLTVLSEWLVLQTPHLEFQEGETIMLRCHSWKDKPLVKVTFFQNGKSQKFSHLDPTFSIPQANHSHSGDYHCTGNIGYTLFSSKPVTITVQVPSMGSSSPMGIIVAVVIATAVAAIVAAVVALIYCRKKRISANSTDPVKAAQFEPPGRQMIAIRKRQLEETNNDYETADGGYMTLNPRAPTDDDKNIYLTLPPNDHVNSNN

[4] = target: T2, FcγRIIa on formaldehyde-fixed human platelets (human, UniProt P12318 34-317, exposed to formaldehyde fixative (residues not stated)); assay: fluorochrome labeled antibody on fixed platelets
T2 construct: Same receptor as m3, but on platelets fixed before exposure to the antibody; also called FcγRIIa on fixed platelets
T2 sequence: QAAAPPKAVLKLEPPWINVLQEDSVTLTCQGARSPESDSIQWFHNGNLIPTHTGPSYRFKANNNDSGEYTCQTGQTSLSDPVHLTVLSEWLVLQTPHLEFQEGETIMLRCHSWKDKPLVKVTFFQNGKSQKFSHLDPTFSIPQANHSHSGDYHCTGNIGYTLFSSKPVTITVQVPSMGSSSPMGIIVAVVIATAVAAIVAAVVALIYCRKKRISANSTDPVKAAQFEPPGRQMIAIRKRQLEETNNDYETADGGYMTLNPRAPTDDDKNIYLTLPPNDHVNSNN

[5] = target: T2, FcγRIIa on formaldehyde-fixed human …; assay: platelets of two subjects, fixed (FIG. 29)
[6] = target: T1, FcγRIIa on non-fixed human platelets …; assay: platelets of two subjects, non-fixed (FIG. 29)
FcγRIIa on platelets = target: T3, FcγRIIa on platelets (Homo sapiens, UniProt P12318); assay: Flow cytometry binding/quantification of FcγRIIa on fixed and non-fixed platelets; conditions: FIG. 29
T3 construct: endogenous in cells; host or cells: platelets from subjects' blood samples, formaldehyde-fixed or non-fixed
T3 sequence (P12318 34-317): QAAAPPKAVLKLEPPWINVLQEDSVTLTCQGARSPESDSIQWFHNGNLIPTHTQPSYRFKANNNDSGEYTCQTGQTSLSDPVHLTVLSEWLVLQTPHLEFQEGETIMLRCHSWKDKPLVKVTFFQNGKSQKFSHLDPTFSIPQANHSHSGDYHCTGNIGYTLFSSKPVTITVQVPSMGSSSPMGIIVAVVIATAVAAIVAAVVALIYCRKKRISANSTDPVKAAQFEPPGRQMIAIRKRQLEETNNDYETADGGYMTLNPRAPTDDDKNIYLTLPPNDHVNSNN
Excerpt: One objective was to identify an antibody that was capable of quantifying FcγRIIa on the surface of platelets that were fixed, similar to quantification of FcγRIIa on non-fixed platelets. To make this assessment, selected antibodies were fluorochrome labeled. An objective was to identify a clone that could quantify FcγRIIa on the surface of fixed platelets within 10% of the quantification of previously-known antibodies on non-fixed platelets. Based on these experiments, two clones were identified, they produced the antibodies FcYRIIa-5G1 and FcYRIIa-11F9 described above.
Lysis of red blood cells can also be performed by the addition of 3% acetic acid (120 μl) to 5 μl of blood. • Incubate for 15 minutes • Add 800 μl PBS • Centrifuge for 2 minutes at 1,200 g • Decant liquid • Re-suspend platelet pellet in 1,000 μl PBS • Centrifuge for 2 minutes at 1,200 g • Decant liquid • Re-suspend platelet pellet in 1,000 μl PBS • Centrifuge for 2 minutes at 1,200 g • Re-suspend platelet pellet in 800 μl PBS with 0.2% BSA and store platelets at room temperature for at least 1 hour before assay (blocking step) • Assay tube final volume=35 μl, adding: • 5 μl of re-suspended platelet • 0.5 μg of 5G1-PE antibody • 2 μl of CD42bPECy5 (Becton Dickinson) • QS with PBS/BSA 0.2% • Incubate antibodies and platelets for 1 hours at room temperature • Dilute with 500 μl of PBS • Analyze with flow cytometry
• Analyze platelet samples using template 032522 FCquant 5G1R-PE 375V_T. Set acquisition volume to 200 ul and run samples at 200 ul/min. count 10,000 events in platelet gate (CD42b positive events). • Platelets are first gated on a FSC SSC plot • A second gate for CD42b PECY5 positive events is created • A histogram plot gated on the CD42b positive events is created. A gate is set to the right of a non-immune IgG control. The x-mean of the histogram gate positive for 5G1R-PE binding is reported • Assay tube for IgG control, adding: • 5 μl of re-suspended platelet • 2 μl of IgG-PE • 2 μl of CD42bPECy5 (Becton Dickinson) • 26 μl PBS/BSA 0.2% […]

Nc1ncnc2c1ncn2[C@@H]1O[C@H](COP(=O)(O)OP(=O)(O)O)[C@@H](O)[C@H]1O [ADP, adenosine diphosphate]
time after exposure at which phosphorylation of FcγRIIa was greatest (FcγRIIa; platelets from low-risk subjects, thrombin 50 nM, convulxin 10 ng/ml, ADP 25 μM, PAF 100 nM): 3 to 5 min

CC(C)(C)n1nc(-c2ccc(Cl)cc2)c2c(N)ncnc21 [PP2]
phosphorylation of FcγRIIa during platelet activation (FcγRIIa; IV.3 Fab 100 μg/ml, PP2 20 μM): prevented phosphorylation of FcγRIIa

CCCCS(=O)(=O)N[C@@H](Cc1ccc(OCCCCC2CCNCC2)cc1)C(=O)O [tirofiban]
agonist-induced activation of platelets (platelets; agonists thrombin, convulxin, ADP, PAF, PAC-1 binding or P-selectin, IV.3 100 μg/ml, PP2 20 μM, tirofiban 0.5 μg/ml): did not attenuate the activation of platelets | activation of platelets caused by coagulation Factor XIII (platelets; summary in words): abolished | amplification of platelet activation induced by fibrinogen (platelets; summary in words): not by tirofiban | binding of PAC-1 to platelets (platelets; tirofiban 0.5 μg/ml): blocked completely the binding of PAC-1 to platelets; also recorded: abolished binding of PAC-1 to platelets | agonist-induced surface expression of P-selectin (platelets; tirofiban, n=3 subjects, FIG. 5D): did not attenuate agonist-induced P-selectin expression

Fab fragment of IV.3
ADP induced activation of platelets with added fibrinogen after pretreatment with IV.3 (100 µg/ml), fold induction [1]: 0.9 fold | ADP-induced activation of platelets with added Factor XIII after pretreatment with IV.3 (100 µg/ml), fold induction [1]: 0.7 fold

IFNγ: cytokine that increases FcγRIIa expression by megakaryocytes
expression of FcγRIIa by Megakaryocyte cell line (Megakaryocyte cell line): increases the expression of FcγRIIa | expression of FcγRIIa by human stem cell derived Megakaryocytes [2]: increases the expression of FcγRIIa

coagulation Factor XIII (from UniProt P00488 2-732) (enzyme)
ADP-induced activation of platelets (surface expression of P-selectin), fold induction [1]: 3.9 fold

fibrinogen (from UniProt P02671 20-629; P02675 31-491; P02679 27-437)
ADP induced activation of platelets (surface expression of P-selectin), fold induction [1]: 1.5 fold

B1: Antibody FcYRIIa-11F9 (antibody, V domains shown)
VH: EVQLQESGPELVKPGASVRISCKASGYTFTNSYMHWVKQRPGQGLEWIGWIYPENINTYYNEKFKGKATLTADRSSSTAYMQLNSLASEDSAVYFCARFYYGFGYWGQGTTLTVSS
VL: DIVMTQSHKFMSTSVGDRVIITCKASQNVISAVAWYQQKPGHSPKLLIYWASTRHTGVPDRFTGSGSGTDFTLTINSVQSEDLADYFCQQYGRYPYTFAGGTKLEIK
notes: Monoclonal antibody from a mouse hybridoma; also called 11F9 antibody
binding result [3]: binds | binding result [4]: binds

B2: Antibody FcYRIIa-5G1 (antibody, V domains shown)
VH: EVQLQESGPELVKPGASVKISCKASGYTFTTYYIHWVKQRPGQGLEWIGWIFPGSSNTFYNEKFKGKATLTADTSAITAYMQLNSLTSEDSAVYFCSRYYYDYGYWGQGTLVTVSA
VL: ENVLTQSPAIMSASPGEKVTMTCSASSSVRYMQWYQQKSNTSPKLWIYDTSKLASGVPGRFSGSGSGNSYFLTISSMEAEDVATYHCFQGSGYPLTFGGGTKLEIK
notes: Monoclonal antibody from a mouse hybridoma; Fluorochrome (phycoerythrin) labelled for flow cytometry; also called 5G1 antibody; 5G1-PE
binding result [5]: binds | binding result [6]: binds

B3: FcYRIIa-5G1: monoclonal antibody binding FcγRIIa; heavy chain SEQ ID NO 4, light chain SEQ ID NO 9 (antibody, V domains shown)
VH: EVQLQESGPELVKPGASVKISCKASGYTFTTYYIHWVKQRPGQGLEWIGWIFPGSSNTFYNEKFKGKATLTADTSAITAYMQLNSLTSEDSAVYFCSRYYYDYGYWGQGTLVTVSA
VL: ENVLTQSPAIMSASPGEKVTMTCSASSSVRYMQWYQQKSNTSPKLWIYDTSKLASGVPGRFSGSGSGNSYFLTISSMEAEDVATYHCFQGSGYPLTFGGGTKLEIK
binding to FcγRIIa on fixed platelets compared with non-fixed platelets (FcγRIIa on platelets): binds to a greater extent to FcγRIIa on fixed platelets | binding to FcγRIIa on fixed platelets (FcγRIIa on platelets; fixed platelets, two subjects): binds at a higher level on fixed platelets | binding to FcγRIIa on non-fixed platelets versus commercially available antibody FLI8.26 (FcγRIIa on platelets; non-fixed platelets, two subjects): binds to a lesser extent than the commercially available antibody
